Measured values from patent US20150306234.
Where a chain is given by its changes, count along the chain named.

Key:
[1] = system: T1, BDD FVIII mutein S2206C
T1 sequence: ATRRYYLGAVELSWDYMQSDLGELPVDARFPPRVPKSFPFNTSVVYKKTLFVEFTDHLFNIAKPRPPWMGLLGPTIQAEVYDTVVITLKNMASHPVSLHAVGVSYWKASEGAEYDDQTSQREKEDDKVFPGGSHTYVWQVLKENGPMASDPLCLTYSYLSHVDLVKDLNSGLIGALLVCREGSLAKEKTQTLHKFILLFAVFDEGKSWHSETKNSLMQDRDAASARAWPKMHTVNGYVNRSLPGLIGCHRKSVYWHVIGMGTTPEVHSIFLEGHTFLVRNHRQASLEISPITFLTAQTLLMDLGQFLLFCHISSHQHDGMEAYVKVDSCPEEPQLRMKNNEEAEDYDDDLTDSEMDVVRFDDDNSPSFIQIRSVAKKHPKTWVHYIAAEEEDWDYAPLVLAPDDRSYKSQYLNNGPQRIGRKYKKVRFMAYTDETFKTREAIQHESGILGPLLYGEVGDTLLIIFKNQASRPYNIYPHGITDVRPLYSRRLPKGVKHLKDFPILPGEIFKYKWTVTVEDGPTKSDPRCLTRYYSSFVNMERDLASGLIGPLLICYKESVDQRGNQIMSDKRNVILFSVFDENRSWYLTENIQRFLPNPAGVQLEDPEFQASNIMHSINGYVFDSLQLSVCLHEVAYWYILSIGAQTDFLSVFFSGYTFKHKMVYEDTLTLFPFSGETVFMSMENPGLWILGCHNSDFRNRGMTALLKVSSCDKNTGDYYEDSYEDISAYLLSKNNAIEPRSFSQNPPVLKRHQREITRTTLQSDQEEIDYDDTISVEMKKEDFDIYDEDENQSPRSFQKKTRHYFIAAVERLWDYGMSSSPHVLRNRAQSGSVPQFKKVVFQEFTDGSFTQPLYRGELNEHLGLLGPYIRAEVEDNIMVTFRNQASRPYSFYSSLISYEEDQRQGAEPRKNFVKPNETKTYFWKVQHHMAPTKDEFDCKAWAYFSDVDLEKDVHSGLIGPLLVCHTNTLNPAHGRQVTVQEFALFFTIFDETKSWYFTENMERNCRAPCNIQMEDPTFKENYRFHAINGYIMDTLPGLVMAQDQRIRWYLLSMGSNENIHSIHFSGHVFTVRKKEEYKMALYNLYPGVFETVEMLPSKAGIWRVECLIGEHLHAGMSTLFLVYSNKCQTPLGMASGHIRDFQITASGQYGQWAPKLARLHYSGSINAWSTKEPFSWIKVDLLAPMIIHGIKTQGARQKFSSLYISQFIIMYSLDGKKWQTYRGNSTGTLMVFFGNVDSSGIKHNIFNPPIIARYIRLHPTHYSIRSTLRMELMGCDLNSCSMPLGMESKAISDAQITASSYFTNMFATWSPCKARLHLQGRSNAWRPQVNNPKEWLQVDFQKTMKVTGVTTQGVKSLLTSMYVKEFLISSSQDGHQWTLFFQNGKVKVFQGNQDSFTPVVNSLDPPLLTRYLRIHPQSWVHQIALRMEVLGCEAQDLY

[2] = system: T2, BDD FVIII mutein S2186C
T2 sequence: T1 sequence with S1292C, C1312S

thrombin (Haematologic Technologies, Essex Junction, Vt.)
thrombin cleavage, SDS-PAGE with silver staining [1]: Thrombin digestion of the muteins and control produced the expected cleavage fragments.
thrombin cleavage, SDS-PAGE with silver staining [2]: Thrombin digestion of the muteins and control produced the expected cleavage fragments.
